Assay results from article PMC4254994 (PLoS ONE, 2014).

Target: the molecule itself
Test: SEC

B1: Bacterial proteasome activator Bpa (Rv3780) of Mycobacterium tuberculosis (natural protein)
chain: MVIGLSTGSDDDDVEVIGGVDPRLIAVQENDSDESSLTDLVEQPAKVMRIGTMIKQLLEEVRAAPLDEASRNRLRDIHATSIRELEDGLAPELREELDRLTLPFNEDAVPSDAELRIAQAQLVGWLEGLFHGIQTALFAQQMAARAQLQQMRQGALPPGVGKSGQHGHGTGQYL
- stoichiometry N: ~6
